For one sequence, Kd results are on record in PMC6886185.

One may read the Kd as the constant that tells how readily two partners part at equilibrium. A low value points to tighter binding.

In this series the target is eIF4A1 (UniProt P60842). In words: fluorescence anisotropy. As to conditions: 20 mM Hepes/KOH pH 7.5, 100 (mM) KCl, 1 mM MgCl2, 1 mM AMP-PNP, 1 mM TCEP, 0.1% DMSO, +/-50 uM silvestrol (10 uM in Fig 4a legend), 60 min, 25 C; numeric Kd of …. A general note: Fluorescence polarisation rises when a labelled molecule tumbles more slowly, as on binding a larger partner.
eIF4A1, sequence (P60842 whole entry): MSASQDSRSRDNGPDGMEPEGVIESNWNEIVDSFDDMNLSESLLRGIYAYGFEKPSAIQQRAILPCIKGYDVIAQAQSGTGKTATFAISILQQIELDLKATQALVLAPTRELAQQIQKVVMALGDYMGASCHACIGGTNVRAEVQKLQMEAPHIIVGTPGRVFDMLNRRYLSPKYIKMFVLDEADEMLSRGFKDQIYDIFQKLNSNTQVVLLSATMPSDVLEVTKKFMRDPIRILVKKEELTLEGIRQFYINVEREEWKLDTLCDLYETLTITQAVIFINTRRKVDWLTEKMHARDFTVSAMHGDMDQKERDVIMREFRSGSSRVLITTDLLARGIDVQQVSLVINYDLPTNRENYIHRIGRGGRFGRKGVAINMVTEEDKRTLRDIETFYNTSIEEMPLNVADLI

AGAGAGAGAGAGAGAGAGAG [(AG)10 ssRNA] displayed a Kd of 0.0033 mM.
